The record followed here is US20040258656, “High affinity TGFbeta nucleic acid ligands and inhibitors” (published 2004).

Residue numbers refer to the chain shown, from its start.

The labels stand for the following.
T1: TGFβ2 (transforming growth factor beta 2) (Homo sapiens, UniProt P61812 SEQ:1-112)
T1 sequence: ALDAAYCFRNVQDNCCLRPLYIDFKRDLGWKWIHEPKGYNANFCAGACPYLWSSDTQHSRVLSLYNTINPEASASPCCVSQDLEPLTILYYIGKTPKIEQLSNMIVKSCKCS

B1: biased clone 2 (ssRNA)
RNA: GGGAGGACGAUGCGGAGGCGUUAUUAGAGAGUCUGUAUAGCUCUAGCCCCAGACGACUCGCCGA
modifications: 2'-F C and U
B2: biased clone 17 (ssRNA)
RNA: GGGAGGACGAUGCGGGGGGACUAUUAGUGAGUCUGUAUAGCACUACCCCCAGACGACUCGCCCGA
modifications: 2'-F C and U
B3: biased clone 4 (ssRNA)
RNA: GGGAGGACGAUGCGGGGAGGGUAUUACAGAGUAUGUAUAGCUGUACUCCCAGACGACUCGCCCGA
modifications: 2'-F C and U
B4: biased clone 7 (ssRNA)
RNA: B3 RNA with G17A, A18G, G21U, C27U, A33C, U36C, G43A, U47C
modifications: 2'-F C and U
B5: biased clone 30 (ssRNA)
RNA: B3 RNA with G16U, G21U, A33C
modifications: 2'-F C and U
B6: biased clone 11 (ssRNA)
RNA: B3 RNA with G17C, A18G, G20A, G21U, U25C, A45G, U47C, C48G
modifications: 2'-F C and U
B7: biased clone 28 (ssRNA)
RNA: B3 RNA with G16A, A18G, G20A, G21A, U47C
modifications: 2'-F C and U
B8: biased clone 35 (ssRNA)
RNA: B2 RNA with C21G, G27A, U28A, A42U, C43U
modifications: 2'-F C and U
B9: biased clone 9 (ssRNA)
RNA: B3 RNA with G16U, G20A, A28G, U42C, U47C
modifications: 2'-F C and U
B10: biased clone 18 (ssRNA)
RNA: B3 RNA with G17U, A18G, G20A, G21U, A30C, A33C, G40U, U47C
modifications: 2'-F C and U
B11: biased clone 25 (ssRNA)
RNA: B3 RNA with A18G, G19C, G21U, A33C, C46G, U47C
modifications: 2'-F C and U
B12: biased clone 21 (ssRNA)
RNA: B3 RNA with G16A, A18G, G20A, G21U, A33C, U47C
modifications: 2'-F C and U
B13: biased clone 13 (ssRNA)
RNA: B2 RNA with G16U, G18U, C21A, U28A, A42U
modifications: 2'-F C and U
B14: biased clone 14 (ssRNA)
RNA: B2 RNA with G16C, C21U, G27C, C43G
modifications: 2'-F C and U
B15: biased clone 29 (ssRNA)
RNA: B3 RNA with G20U, G21U, A30C, A33C, G40U, C46G, U47C
modifications: 2'-F C and U
B16: biased clone 15 (ssRNA)
RNA: B3 RNA with G17U, A18G, G20A, G21A, A28G, A33C, U42C
modifications: 2'-F C and U
B17: biased clone 26 (ssRNA)
RNA: B3 RNA with A18U, G21U, G29C, C41G, U47C
modifications: 2'-F C and U
B18: biased clone 34 (ssRNA)
RNA: B3 RNA with A18U, G21U, C27G, A33C, G43C, U47G
modifications: 2'-F C and U
B19: biased clone 10 (ssRNA)
RNA: B3 RNA with A18G, G19C, G20A, G21U, A26U, A33C, C46G, U47C
modifications: 2'-F C and U
B20: biased clone 19 (ssRNA)
RNA: B3 RNA with G17C, G21U, A33C, C48G
modifications: 2'-F C and U
B21: biased clone 36 (ssRNA)
RNA: B3 RNA with G21A, C27U, A33C, G43A, U47C
modifications: 2'-F C and U
B22: biased clone 22 (ssRNA)
RNA: B3 RNA with G17U, A18G, G20A, G21U, A33C, U47C
modifications: 2'-F C and U
B23: biased clone 20 (ssRNA)
RNA: GGGAGGACGAUGCGGGGUAGAUAUCACUGAGUCUGUAUAGCAGUGUCCCCAGACGACUCGCCCGA
modifications: 2'-F C and U
B24: 8.28 (ssRNA)
RNA: GGGAGGACGAUGCGGAUGAGACCUAAUCAUCGAUCCGCUAUCUAAAACCUCACCCCAGACGACUCGCCCGA
modifications: 2'-F C and U; 2'-OH A and G
B25: 8.23 (ssRNA)
RNA: GGGAGGACGAUGCGGAGACAUCUUUGUCUCGAUUAGUCAUGUUCCUUACCUGCCCCAGACGACUCGCCCGA
modifications: 2'-F C and U; 2'-OH A and G
B26: 8.35 (ssRNA)
RNA: GGGAGGACGAUGCGGAUCCUAUCCUCUGAAUAUCAUUAAAUCAUCUUCUCCGCCCCAGACGACUCGCCCGA
modifications: 2'-F C and U; 2'-OH A and G
B27: 8.2 (ssRNA)
RNA: GGGAGGACGAUGCGGAAGUAACGUUUAAGUAAAAUUCGUUCUCUCGGUAUUUGGCCAGACGACUCGCCCGA
modifications: 2'-F C and U; 2'-OH A and G
B28: 8.3 (ssRNA)
RNA: B27 RNA with U26G, U48C
modifications: 2'-F C and U; 2'-OH A and G

The target in the first data set is T1, TGFβ2 (transforming growth factor beta …). Briefly: filter. The settings on record: chain copies: 2 (inferred, homodimer).
On to GGGGUUAUUCAGAGUCUGUAUAGCUGACCC (ssRNA, 2'-F C and U) [21a-21(ML-136)], for which the binding signal was 10000 x Kd of NX22284.
As for AGGUUAUUACAGAGUCUGUAUAGCUGUACUCC (ssRNA, 2'-F C and U; 3'-3' dT cap) [NX22302], the binding signal is 100 x Kd of NX22284.
In the case of GGAGGUUAUUACAGAGUCUGUAUAGCUGUAC (ssRNA, 2'-F C and U) [21a-21(ML-105)], the binding signal is 1000 x Kd of NX22284.
Still for that read-out and setting: the figure for GGGGUUAUUAAGAGUCUGUAUAGCUUACCC (ssRNA, 2'-F C and U) [21a-21(ML-138)] is 10000 x Kd of NX22284.
The same measure, in the same setting: the same measure for GGGGUUAUUACAGAGUCUGUAUAGCUGUACCC (ssRNA, 2'-F C and U) [21a-21(ML-130)]: 2 x Kd of NX22284; for GGAGGUUAUUACAGAGUCUGUAUAGCUGUA (ssRNA, 2'-F C and U) [21a-21(ML-96)]: 1000 x Kd of NX22284; for GGAGGUUAUUACAGAGUCUGUAUAGCUGUACUCCCC (ssRNA, 2'-F C and U) [21a-21(ML-94)]: 0.5 x Kd of NX22284.
Still for that read-out and setting: the figure for GGUUAUUACAGAGUCUGUAUAGCUGUACUCC (ssRNA, 2'-F C and U; 3'-3' dT cap) [NX22303] is > 100 x Kd of NX22284; for GGAGGUUAUUACAGAUCUGUAUAGCUGUACUCC (ssRNA, 2'-F C and U) [21a-21(ML-120)] it is 1000 x Kd of NX22284; for GGAGGUUAUUACAGAGUUGUAUAGCUGUACUCC (ssRNA, 2'-F C and U) [21a-21(ML-128)] it is 1000 x Kd of NX22284.
For the molecule GGAGGUUAUUACAGAGUCUGUAUAGCUACUCC (ssRNA, 2'-F C and U) [21a-21(ML-116)], the binding signal was 1000 x Kd of NX22284.
Same read-out and setting: the same measure for GGAGGUUAUUAGAGUCUAUAGCCUCC (ssRNA, 2'-F C and U) [21a-21(ML-102)]: 1000 x Kd of NX22284; for GGAGGUUAUUAGAGUCUAUAGCUGUACUCC (ssRNA, 2'-F C and U) [21a-21(ML-101)]: 1000 x Kd of NX22284.
As to GAGGUUAUUACAGAGUCUGUAUAGCUGUACUCC (ssRNA, 2'-F C and U; 3'-3' dT cap) [NX22301], the binding signal was 1 x Kd of NX22284.
The same measure, in the same setting: the figure for GGAGGUUAUUACAGAGUCUGUAUAGCUGUACUCC (ssRNA, 2'-F C and U) [21a-21(ML-95)] is 1 x Kd of NX22284.
In the case of GGAGGUUAUUACAGAGUCUGUAUAGCUGUACUCCCCA (ssRNA, 2'-F C and U) [NX22285], the binding signal is 2 x Kd of NX22284.
As to GGAGGUUAUACAGAGUCUGUAUAGCUGUACUCC (ssRNA, 2'-F C and U) [21a-21(ML-118)], the binding signal was 1000 x Kd of NX22284.
GGAGAUAUUACAGAGUCUGUAUAGCUGUACUCC (ssRNA, 2'-F C and U) [21a-21(ML-134)]: the binding signal is 10 x Kd of NX22284.
Still for that read-out and setting: the figure for GGAGGUUAUUACAGAGUCUGUAUAGC (ssRNA, 2'-F C and U) [21a-21(ML-97)] is 1000 x Kd of NX22284; for GGAGGUUAUUACAGAGUCUGUAUAGCGUACUCC (ssRNA, 2'-F C and U) [21a-21(ML-114)] it is 1000 x Kd of NX22284; for GGAGGUUAUUACAGAGUCUGUAUAGCUGUCUCC (ssRNA, 2'-F C and U) [21a-21(ML-115)] it is 1000 x Kd of NX22284.
On to GGAGGUUAUUACAAGUUGUAUAGCUGUACUCC (ssRNA, 2'-F C and U) [21a-21(ML-122)], for which the binding signal is 1000 x Kd of NX22284.
Still for that read-out and setting: the figure for GGAGGUUAUUACGAGUCUGUAUAGCGUACUCC (ssRNA, 2'-F C and U) [21a-21(ML-132)] is 1000 x Kd of NX22284.

The target is the same in the next data set. Briefly: filter. The conditions noted are these: chain copies: 2 (inferred, homodimer). This is another data set of the same source.
For B1, the binding signal was 0.6 x Kd of 21a-21.
Still for that read-out and setting: the figure for B2 is 0.8 x Kd of 21a-21; for B3 it is 1.4 x Kd of 21a-21; for B4 it is 0.3 x Kd of 21a-21.
Same read-out and setting: the same measure for B5: 2.4 x Kd of 21a-21; for B6: 0.4 x Kd of 21a-21.
On the same count and under the same terms, the figure for B7 is 1 x Kd of 21a-21.
For B8, the binding signal was 0.8 x Kd of 21a-21.
On the same count and under the same terms, the same measure for B9: 0.3 x Kd of 21a-21; for B10: 1 x Kd of 21a-21; for B11: 1 x Kd of 21a-21.
On the same count and under the same terms, the figure for B12 is 0.7 x Kd of 21a-21; for B13 it is 0.2 x Kd of 21a-21.
The same measure, in the same setting: the figure for B14 is 0.4 x Kd of 21a-21; for B15 it is 1 x Kd of 21a-21.
On to B16, for which the binding signal is 0.4 x Kd of 21a-21.
On the same count and under the same terms, the figure for B17 is 3.1 x Kd of 21a-21.
Still for that read-out and setting: the figure for B18 is 1.7 x Kd of 21a-21.
For B19, the binding signal was 0.3 x Kd of 21a-21.
Still for that read-out and setting: the figure for B20 is 1 x Kd of 21a-21; for B21 it is 1.9 x Kd of 21a-21; for B22 it is 1.1 x Kd of 21a-21.
Same read-out and setting: the figure for B23 is 5.7 x Kd of 21a-21.

Another data set shares this target. Briefly: filter. The conditions noted are these: chain copies: 2 (homodimer, stated).
For B24, the binding result is “no binding”.
Same read-out and setting: the entry for B25 is “no binding”; for B26 it is “no binding”; for B27 it is “binds”.
Same read-out and setting: the entry for B28 is “binds”.
